24 molecules from US20100092409A1 (DANISCO US, published 2010) can be followed below.

Experiment [1] has as its target T1, vascular endothelial growth factor (VEGF) (UniProt P15692-4 27-191, limits assumed, labeled with biotin for the BioVeris assay (sites not given)). In words: BioVeris ECL competition with a labeled competitor; grade +++ = apparent IC50 about 2-10 µM. As for the experimental part:
(§1) The resulting vectors were used to transform B. subtilis BG6006 host cells. Cultures were grown in 500 ml of MBD medium and the BBI species were purified essentially as described above and by Vogtentanz et al., 2007 (Protein Expr Purif 55:40-52 [2007]). BioVeris binding assays were performed essentially as outlined in Example 5 and by the manufacturer. Binding of the modified variant BBIs to their respective target proteins was measured using a BioVeris® binding assay, which is a competition assay that determines the binding of the modified variant BBIs to its target protein (e.g. VEGF, FGF5, TGFβ and TNFα) in the presence or absence of a labeled competitor. The competitor can be a labeled monoclonal antibody raised against the target protein or a labeled native receptor of the target protein. The electrochemiluminescent binding assays were performed essentially as described in Example 5. The apparent IC50s were determined from binding data by determining the concentration of the BBI species needed to reduce the BioVeris signal by one half. BBI scaffolds without the target binding peptide in the chymotrypsin inhibitory loop were used as negative controls.

In experiment [2] the target is T1, vascular endothelial growth factor …. In words: BioVeris ECL competition with a labeled competitor; grade ++ = apparent IC50 about 10-50 µM. The procedure: as §1
Experiment [3] deals with T2, tumor necrosis factor α (TNFα) (UniProt P01375 77-233). The experiment is described as above. As for the experimental part:
as §1

For experiment [4], the target named is T2, tumor necrosis factor α (TNFα). In words: BioVeris ECL competition with a labeled competitor; grade + = apparent IC50 about 50-250 µM. The procedure: as §1
Experiment [5] shares this target. As to the kind of experiment: BioVeris ECL competition with a labeled competitor; negative control for TNFα binding. The procedure: as §1
Experiment [6] addresses T3, transforming growth factor β1 (TGFβ1) (UniProt P01137 279-390). In words: BioVeris ECL competition with a labeled competitor; grade ++ = apparent IC50 about 10-50 µM. The procedure:
as §1

Experiment [7] concerns the target T4, fibroblast growth factor 5 (FGF-5) (UniProt P12034 21-268, limits assumed).
T4 sequence (looked up): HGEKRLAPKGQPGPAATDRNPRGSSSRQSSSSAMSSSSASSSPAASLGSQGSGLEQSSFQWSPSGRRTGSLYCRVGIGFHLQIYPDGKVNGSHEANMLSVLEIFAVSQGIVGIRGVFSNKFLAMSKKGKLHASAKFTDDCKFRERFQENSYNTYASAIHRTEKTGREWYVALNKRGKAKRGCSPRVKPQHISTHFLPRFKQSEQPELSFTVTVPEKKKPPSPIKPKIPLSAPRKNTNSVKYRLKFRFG
The description is as above. As for the experimental part:
as §1

Experiment [8] has as its target T3, transforming growth factor β1 (TGFβ1). In words: BioVeris ECL competition with a labeled competitor; negative control for TGFβ binding. As for the experimental part: as §1
Experiment [9] concerns the target T1, vascular endothelial growth factor …. In words: BioVeris ECL competition with a labeled competitor; negative control for VEGF binding. The procedure:
as §1

The target of experiment [10] is T4, fibroblast growth factor 5 (FGF-5). As to the kind of experiment: BioVeris ECL competition with a labeled competitor; negative control for FGF-5 binding. As for the experimental part:
as §1

T1 sequence (P15692 other isoform, or with tags, fused parts or gaps limits assumed): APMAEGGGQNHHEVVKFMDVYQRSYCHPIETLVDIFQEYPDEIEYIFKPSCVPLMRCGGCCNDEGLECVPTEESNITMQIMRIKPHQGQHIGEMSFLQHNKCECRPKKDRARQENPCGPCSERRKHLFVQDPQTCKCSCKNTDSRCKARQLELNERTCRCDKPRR
T2 sequence (P01375 77-233 limits assumed): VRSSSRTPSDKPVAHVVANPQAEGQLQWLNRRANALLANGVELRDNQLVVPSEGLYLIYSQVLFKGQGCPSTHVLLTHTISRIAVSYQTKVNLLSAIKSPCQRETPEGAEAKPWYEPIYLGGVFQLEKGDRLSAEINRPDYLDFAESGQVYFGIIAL
T3 sequence (P01137 279-390 limits assumed): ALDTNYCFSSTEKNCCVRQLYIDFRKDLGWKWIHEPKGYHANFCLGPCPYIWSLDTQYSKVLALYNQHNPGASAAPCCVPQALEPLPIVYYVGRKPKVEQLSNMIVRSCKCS

B1: BBtc-AV (Torresea cearensis Bowman Birk Inhibitor with CK37281 in the second protease inhibitory loop) (designed binder)
chain: DPSSKWEACCDRCACTKSIPPQCHCADIRLNSCHSACESCACYNLYGWTCRCFDITDFCYKPCSG
notes: also called BBItc-AV
As for B1, the IC50 in [1] lay in the range of 2 to 10 µM.

B2: BBIt-VEGF-V5-A13I-S25R-M27A-L29P-S31A-F50K-V52T (designed binder)
chain: DPDDESSKPCCDQCICTKSNPPQCRCRDARPNACHSACKSCACKPSSASSCKCTDITDFCYEPCKPSE
notes: also called BBIt-AV-V5
With B2, the IC50 in [2] lay in the range of 10 to 50 µM.

B3: BBIt-TNFα-T1-A13I-S25R-M27A-L29P-S31A-F50K-V52T (designed binder)
chain: DPDDESSKPCCDQCICTKSNPPQCRCRDARPNACHSACKSCACRYWQDIPCKCTDITDFCYEPCKPSE
notes: also called BBIt-TNF-T1
As to B3, the IC50 in [3] is 10 to 50 µM.

B4: BBIt-TNFα-T3-A13I-S25R-M27A-L29P-S31A-F50K-V52T (designed binder)
chain: DPDDESSKPCCDQCICTKSNPPQCRCRDARPNACHSACKSCACDMIMVSICKCTDITDFCYEPCKPSE
notes: also called BBIt-TNF-T3
As to B4, the IC50 in experiment [4] lay within 50 to 250 µM.

B5: BBIt-TNFα-T2-A13I-S25R-M27A-L29P-S31A-F50K-V52T (designed binder)
chain: DPDDESSKPCCDQCICTKSNPPQCRCRDARPNACHSACKSCACAPEPILACKCTDITDFCYEPCKPSE
notes: also called BBIt-TNF-T2
Regarding B5, the IC50 in experiment [4] was in the range of 50 to 250 µM.

B6: BBIt-VEGF-V6-A13I-S25R-M27A-L29P-S31A-F50K-V52T (designed binder)
chain: DPDDESSKPCCDQCICTKSNPPQCRCRDARPNACHSACKSCACPVTKRVHCKCTDITDFCYEPCKPSE
notes: also called BBIt-AV-V6
Consider B6, for which the IC50 in experiment [2] lay within 10 to 50 µM.

B7: BBIt-VEGF-V1-A13I-S25R-M27A-L29P-S31A-F50K-V52T (designed binder)
chain: DPDDESSKPCCDQCICTKSNPPQCRCRDARPNACHSACKSCACSKHSQITCKCTDITDFCYEPCKPSE
notes: also called BBIt-AV-V1
As for B7, the figures for the IC50 in experiment [2] and in [5] were 10 to 50 µM and more than 250 µM, respectively.

B8: BBIt-VEGF-V4-A13I-S25R-M27A-L29P-S31A-F50K-V52T (designed binder)
chain: DPDDESSKPCCDQCICTKSNPPQCRCRDARPNACHSACKSCACKHSAKAECKCTDITDFCYEPCKPSE
notes: also called BBIt-AV-V4
Turning to B8, the IC50 in experiment [1] was in the range of 2 to 10 µM.

B9: BBIt-VEGF-V2-A13I-S25R-M27A-L29P-S31A-F50K-V52T (designed binder)
chain: DPDDESSKPCCDQCICTKSNPPQCRCRDARPNACHSACKSCACKTNPSGSCKCTDITDFCYEPCKPSE
notes: also called BBIt-AV-V2
With B9, the IC50 in [1] was 2 to 10 µM.

B10: BBIt-VEGF-V3-A13I-S25R-M27A-L29P-S31A-F50K-V52T (designed binder)
chain: DPDDESSKPCCDQCICTKSNPPQCRCRDARPNACHSACKSCACRPTGHSLCKCTDITDFCYEPCKPSE
notes: also called BBIt-AV-V3
On to B10, for which, in experiment [2], the 50% inhibitory concentration (IC50) lay within 10 to 50 µM.

B11: BBIt-AV-A13I-L29P-A40K-F50T-V52A (designed binder)
chain: DPDDESSKPCCDQCICTKSNPPQCRCSDMRPNSCHSACKSCKCYNLYGWTCTCADITDFCYEPCKPSE
notes: also called TA5; quintuple variant
With B11, the IC50 in experiment [1] was in the range of 2 to 10 µM.

B12: MM021W-Q-BBIt-TGFβ1 (designed binder)
chain: DPDDESSKPCCDQCICTKSNPPQCRCSDMRPNSCHSACKSCACKHNVDWLCTCADITDFCYEPCKPSE
notes: also called BBIt-MM021W-Q-A13I-L29P-F50T-V52A
As for B12, the IC50 in experiment [6] fell in the range of 10 to 50 µM.

B13: FGFps2-Q-BBIt-FGF-5 (designed binder)
chain: DPDDESSKPCCDQCICTKSNPPQCRCSDMRPNSCHSACKSCACTWIDSTPCTCADITDFCYEPCKPSE
notes: also called BBIt-FGFps2-Q-A13I-L29P-F50T-V52A
Consider B13, for which the 50% inhibitory concentration (IC50) was 10 to 50 µM in [7] and more than 250 µM in experiment [8].

B14: MM007-Q-BBIt-FGF-5 (designed binder)
chain: DPDDESSKPCCDQCICTKSNPPQCRCSDMRPNSCHSACKSCACRTQPYPLCTCADITDFCYEPCKPSE
notes: also called BBIt-MM007-Q-A13I-L29P-F50T-V52A
As to B14, in experiment [7], the half-inhibitory concentration (IC50) lay in the range of 10 to 50 µM.

B15: WTQ-Q-BBIt-TGFβ1 (designed binder)
chain: DPDDESSKPCCDQCICTKSNPPQCRCSDMRPNSCHSACKSCACWTQHIHNCTCADITDFCYEPCKPSE
notes: also called WTQ-BBIt-Q-TGF; BBIt-WTQ-Q-A13I-L29P-F50T-V52A
For B15, the IC50 in experiment [6] was 10 to 50 µM.

B16: BBIt-AV-A13I-S25R-M27A-L29P-S31A-A40H-F50K-V52T (designed binder)
chain: DPDDESSKPCCDQCICTKSNPPQCRCRDARPNACHSACKSCHCYNLYGWTCKCTDITDFCYEPCKPSE
notes: also called KT8
Consider B16, for which the IC50 in experiment [1] lay within 2 to 10 µM.

B17: BBIt-AV-A13I-S25K-M27A-L29R-S31A-A40H-F50R-V52L (designed binder)
chain: DPDDESSKPCCDQCICTKSNPPQCRCKDARRNACHSACKSCHCYNLYGWTCRCLDITDFCYEPCKPSE
notes: also called RL8
For B17, the IC50 in [1] was 2 to 10 µM.

B18: BBIt-AV-A13I-A40K-F50T-V52A (designed binder)
chain: DPDDESSKPCCDQCICTKSNPPQCRCSDMRLNSCHSACKSCKCYNLYGWTCTCADITDFCYEPCKPSE
For B18, in [1], the IC50 is 2 to 10 µM.

B19: BBIt-AV-A13I-S25K-M27A-L29R-S31E-A40K-F50Q-V52Q (designed binder)
chain: DPDDESSKPCCDQCICTKSNPPQCRCKDARRNECHSACKSCKCYNLYGWTCQCQDITDFCYEPCKPSE
notes: also called QQ8
For B19, in experiment [1], the IC50 was 2 to 10 µM.

B20: BBdb-AV (Dolichos biflorus Bowman Birk Inhibitor with CK37281 in the second protease inhibitory loop) (designed binder)
chain: DPSESSKPCCDQCACTKSIPPQCRCTDVRLNSCHSACSSCACYNLYGWTCVCVDMKDFCYEPCK
notes: also called BBIdb-AV
In the case of B20, in [1], the IC50 lay in the range of 2 to 10 µM.

B21: BBIt-VEGKD-A13I-S25K-L29P-V52K (designed binder)
chain: DPDDESSKPCCDQCICTKSNPPQCRCKDMRPNSCHSACKSCICKYDLYWWCFCKDITDFCYEPCKPSE
notes: also called VegKD-Q
For the molecule B21, the IC50 in [1] lay in the range of 2 to 10 µM.

B22: soybean Bowman-Birk Inhibitor (BBI), wild type (other)
chain: DDESSKPCCDQCACTKSNPPQCRCSDMRLNSCHSACKSCICALSYPAQCFCVDITDFCYEPCKPSEDDKEN
notes: Used as the negative control; also called sBBI; BBI-WT
Take B22: the IC50 in experiment [9] and in experiment [10] was more than 250 µM each time.

B23: BBIt-AV (truncated BBI-AV, unmodified variant) (designed binder)
chain: DDESSKPCCDQCACTKSNPPQCRCSDMRLNSCHSACKSCACYNLYGWTCFCVDITDFCYEPCKPSE
notes: also called CT
As for B23, the IC50 in experiment [1] lay within 2 to 10 µM.

B24: PEN3-Q-BBIt-TGFβ1 (designed binder)
chain: DPDDESSKPCCDQCICTKSNPPQCRCSDMRPNSCHSACKSCACPENINVLPCTCADITDFCYEPCKPSE
notes: also called BBIt-PEN3-Q-A13I-L29P-F50T-V52A
With B24, the IC50 in [6] fell in the range of 10 to 50 µM.

In general, IC50 refers to the concentration that gives 50% inhibition.
